The values that follow come from PMC3267840.

Holding throughout (assay): purified protein
One series concerns NCCc1ccc(O)c(O)c1. The series is classed as biochemical, Tribolium castaneum. The following applies: pH 6.0, 0.1 M Mes.
In series [1] the test system is NCCC(=O)NCCc1ccc(O)c(O)c1. The series is classed as biochemical, Tribolium castaneum. The following applies: pH 5.5, 0.1 M sodium acetate.
The next series deals with Oc1ccc(O)cc1. The format is biochemical, Tribolium castaneum. The following applies: pH 5.5, 0.1 M sodium acetate (pH optimum not determined).
The subject of the next series is Oc1ccccc1O. The format is biochemical, Tribolium castaneum. As to conditions: pH 5.5, 0.1 M sodium acetate (pH optimum not determined).
The subject of another series is CC(=O)NCCc1ccc(O)c(O)c1. The series is classed as biochemical, Tribolium castaneum. The following applies: pH 5.5, 0.1 M sodium acetate.
Substrate in series [2]: N[C@@H](Cc1ccc(O)c(O)c1)C(=O)O
The series is classed as biochemical, Manduca sexta. The following applies: pH 6.0, 0.1 M Mes, 0.1 % cetylpyridinium as activator.

Substrate in series [3]: CC(=O)NCCc1ccc(O)c(O)c1
The format is biochemical, Anopheles gambiae.

Substrate in series [4]: NCCC(=O)NCCc1ccc(O)c(O)c1
The format is biochemical, Anopheles gambiae. As to conditions: pH 5.5, 0.1 M sodium acetate.

Substrate in series [5]: Oc1ccc(O)cc1
The series is classed as biochemical, Anopheles gambiae. The following applies: pH 5.5, 0.1 M sodium acetate (pH optimum not determined).

Substrate in series [6]: NCCc1ccc(O)c(O)c1
The series is classed as biochemical, Anopheles gambiae.

Substrate in series [7]: CC(=O)NCCc1ccc(O)c(O)c1
The format is biochemical, Tribolium castaneum. The following applies: pH 5.5, 0.1 M sodium acetate. This is another data set of the same source.

Substrate in series [8]: Oc1ccccc1O
The series is classed as biochemical, Tribolium castaneum. As to conditions: pH 5.5, 0.1 M sodium acetate (pH optimum not determined). The source holds these as a separate data set.

Substrate in series [9]: NCCC(=O)NCCc1ccc(O)c(O)c1
The format is biochemical, Tribolium castaneum. The following applies: pH 5.5, 0.1 M sodium acetate. The source holds these as a separate data set.

Substrate in series [10]: Oc1ccc(O)cc1
The series is classed as biochemical, Tribolium castaneum. As to conditions: pH 5.5, 0.1 M sodium acetate (pH optimum not determined). This is another data set of the same source.

Substrate in series [11]: NCCc1ccc(O)c(O)c1
The series is classed as biochemical, Tribolium castaneum. As to conditions: pH 5.5, 0.1 M sodium acetate.

Substrate in series [12]: Oc1ccccc1O
The series is classed as biochemical, Anopheles gambiae. As to conditions: pH 5.5, 0.1 M sodium acetate (pH optimum not determined).

As to “TcLac2B (Tribolium castaneum; G182D/T93A)”, the Km was 2000 µM in the series with NCCc1ccc(O)c(O)c1; 4000 µM in [1]; 2000 µM in the series on Oc1ccc(O)cc1; 12000 µM with Oc1ccccc1O; 600 µM with CC(=O)NCCc1ccc(O)c(O)c1. Moreover, the kcat in the series on NCCc1ccc(O)c(O)c1 is 7.5 s⁻¹; in series [1], 18.8 s⁻¹; in the series on Oc1ccc(O)cc1 it was 9.2 s⁻¹; in the series with Oc1ccccc1O, 10.8 s⁻¹; with CC(=O)NCCc1ccc(O)c(O)c1 it was 5.5 s⁻¹. In addition, the kcat/Km was 3750 M⁻¹ s⁻¹ in the series on NCCc1ccc(O)c(O)c1; 4700 M⁻¹ s⁻¹ in series [1]; 4600 M⁻¹ s⁻¹ in the series on Oc1ccc(O)cc1; 900 M⁻¹ s⁻¹ in the series with Oc1ccccc1O; 9170 M⁻¹ s⁻¹ in the series on CC(=O)NCCc1ccc(O)c(O)c1.

B1: phenoloxidase (prophenoloxidase from M. sexta hemolymph) (Manduca sexta) (protein)
chain 1: TDAKNNLLYFFDRPNEPCFMQKGEDKVVFEIPDHYYPDKYKSLSNTLSNRFGNEATKRIPIRNITLPNLEVPMQLPYNDQFSLFVPKHRTMAAKLIDIFMGMRDVEDLQSVCSYCQLRINPYMFNYCLSVAILHRPDTKGLSIPTFAETFPDKFMDSKVFLRAREVSNVVISGSRMPVNVPINYTANTTEPEQRVAYFREDIGINLHHWHWHLVYPFDSADRSIVNKDRRGELFYYMHQQIIGRYNVERMCNGLPQVKPFSDFSAPIEEGYFPKLDSQVASRTWPPRFAGSVFRNLDRTVDQVKIDVRKLFTWRDQFLEAIQKMAIKMPNGRELPLDEVTGIDMLGNLMESSIISPNRGYYGDLHNMGHVFAAYTHDPDHRHLEQFGVMGDSATAMRDPFFYRWHRFVDDVFNIYKEKLTPYTNERLDFPGVRVSSVGIEGARPNTLRTLWQQSTVELGRGLDFTPRGSVLARFTHLQHDEFQYVIEVNNTTGGNLMGTVRIFMAPKVDDNGQPMSFNKQRRLMIELDKFSQALRPGTNTIRRRSVDSSVTIPYERTFRNQSERPGDPGTAGAAEFDFCGCGWPHHMLIPKGTAQGYPVVLFVMISNWNNDRIEQDLVGSCNDAASYCGIRDRKYPDKQAMGYPFDRKMANDAATLSDFLRPNMAVRDCSIQFSDTTVERGQQG
chain 2: ADIFDSFELLYDRPGEPMINTKGEDKVLFELTEQFLTPEYANNGLELNNRFGDEEEVSRKIILKNLDKIPEFPKAKQLPNDADFSLFLPSHQEMANEVIDVLMSVTENQLQELLSTCVYARINLNPQLFNYCYTVAIMHRRDTGKVRVQNYAEIFPAKFLDSQVFTQAREAAAVIPKTIPRTPIIIPRDYTATDLEEEHRLAYWREDLGINLHHWHWHLVYPFSASDEKIVAKDRRGELFFYMHQQIIARYNCERLCNSLKRVKKFSDWREPIPEAYYPKLDSLTSARGWPPRQAGMRWQDLKRPVDGLNVTIDDMERYRRNIEEAIATGNVILPDKSTKKLDIDMLGNMMEASVLSPNRDLYGSIHNNMHSFSAYMHDPEHRYLESFGVIADEATTMRDPFFYRVHAWVDDIFQSFKEAPHNVRPYSRSQLENPGVQVTSVAVESAGGQQNVLNTFWMQSDVNLSKGLDFSDRGPVYARFTHLNHRPFRYVIKANNTASARRTTVRIFIAPKTDERNLPWALSDQRKMFIEMDRFVVPLSAGENTITRQSTESSLTIPFEQTFRDLSIQGSDPRRSELAAFNYCGCGWPQHMLVPKGTVGGVAYQLFVMLSNYELDKIEQPDGRELSCVEASMFCGLKDKKYPDARPMGYPFDRPSNSATNIEDFSAMSNMGLQDIVIKLSDVTEPNPRNPPA
In the case of B1, in “purified protein [2]”, the Km was determined as 2000 µM and the kcat came out at 6.02 s⁻¹.

B2: AgMCO2A (Anopheles gambiae) (protein)
chain: VRVQQHTSRRFKDESFGHDQTPAGSWWSSHLTEPPSNFYQATHGLLQTHPSVPSLKPVAGAPAAPGPSALPLSSRKSPTVSSAAALNSGFPSIANPNPRSPFRHLDFSTSATAELRRNPSLSAPDECARACREGEPPRICYYHFTVEYYTVLGAACQVCTPNATNTVWSHCQCVLADGVERGILTVNRMIPGPSIQVCENDRVVIDVENHMEGMELTIHWHGIWQRGTQYYDGVPFVTQCPIQQGNTFRYQWTGNAGTHFWHAHTGLQKLDGLYGSIVVRQPPSRDPNSHLYDFDLTTHIMLVSDWLHEDAAERYPGRLAVNTGQDPESLLINGKGQFRDPNTGFMTNTPLEIFTITPGRRYRFRMINAFASVCPAQVTIEGHALTVIATDGEPVHPAQVNTIISFSGERYDFVITADQPVGAYWIQLRGLGECGIKRAQQLAILRYARGPYQPASPPPTYDVGLPQGVVMNPLDAQCNVQRDDAICVSQLKNAKEIDRALLQDKPDVKIFLPFRFYLYRPEELFQPNTYNRFLVAPTGDHVISLIDEISYLSAPAPLLSQYDDINPEQFCNGDNRPADCGANCMCTHKVDIPLNAIVEVVLVDEVQQPNLSHPFHLHGYAYNVVGIGRSPDSNVKKINLKHALDLDRRGLLHRQYNLPPLKDTIAVPNNGYVVLRFRADNPGFWLFHCHFLFHIVIGMNLILQVGTHADLPPVPPNFPTCGDHLPPIN
For B2, the Km in the series “purified protein [3]” (pH 5.5, 0.1 M sodium acetate) turned out to be 300 µM; in “purified protein [4]” it was 1000 µM; in “purified protein [5]” it was 2000 µM; in the series “purified protein [6]” (pH 7.5, 0.1 M sodium phosphate) it was 500 µM. Besides, the kcat worked out at 1.53 s⁻¹ in the series “purified protein [3]” (pH 5.5, 0.1 M sodium acetate); 3.65 s⁻¹ in “purified protein [4]”; 3.82 s⁻¹ in “purified protein [5]”; 0.8 s⁻¹ in “purified protein [6]” (pH 7.5, 0.1 M sodium phosphate). The kcat/Km was determined as 5120 M⁻¹ s⁻¹ in the series “purified protein [3]” (pH 5.5, 0.1 M sodium acetate); 3650 M⁻¹ s⁻¹ in “purified protein [4]”; 1900 M⁻¹ s⁻¹ in “purified protein [5]”; 1600 M⁻¹ s⁻¹ in “purified protein [6]” (pH 7.5, 0.1 M sodium phosphate).

B3: TcLac2A (Tribolium castaneum) (protein)
chain: VRAPGAKKKVGPIDQSAAAASWHDFDNSDFFQSEHAVIQTHPSIGGGPRFSSGGGRKAWKHLDFRNSAAAELLKNPSLSSPDECARACREGEPPRICYYHFTLELYTVLGAACQVCTPNATNTVWSHCQCVLADGVERGILTANRMIPGPSIQVCEGDKVVIDVENHIEGNEVTLHWHGVWQRGSQYYDGVPFVTQCPIQQGNTFRYQWIAGNAGTHFWHAHTGLQKMDGLYGSVVIRQPPAKDPNSHLYDYDLTTHVMLLSDWMHEDATERFPGRLAVNTGQDPESLLINGKGQFRDPNTGFMTNTPLEVFTITPGRRYRFRMINSFASVCPAQLTIQGHDLTLIATDGEPVHPVRVNTIISFSGERYDFVINADQTPGAYWIQLRGLGECGIRRVQQLGILRYAKGPYQPSQAPPTYDYGIPQGVVLNPLDARCNEIRPDAICVSQLKNALSIDKGILREKPDVKIFLPFRFHIYTPEDLFAPNTYNRHLVAPNGDHVISLIDEISYMAPPAPLISQYDDIDPQQFCNGDNRPADCQQNCMCTHKVDIPLNAIVEIVLVDEVQQPNLSHPFHLHGYAFNVIGIGRSPDQNVKKINLKHALDLDRQGLLHRQFNLPPAKDTIAVPNNGYVVLRLRANNPGFWLFHCHFLFHIVIGMNLVLQVGTHADLPPVPPNFPTCGDHVPEINSNPNLV
As to B3, the Km came to 700 µM in the series “purified protein [7]”; 6000 µM in “purified protein [8]”; 1000 µM in “purified protein [9]”; 1000 µM in “purified protein [10]”; 800 µM in “purified protein [11]”. The kcat in “purified protein [7]” was found to be 2.45 s⁻¹; in the series “purified protein [8]” it was 4.03 s⁻¹; in the series “purified protein [9]”, 2.75 s⁻¹; in “purified protein [10]”, 3.55 s⁻¹; in “purified protein [11]” it was 0.683 s⁻¹. The kcat/Km came to 3500 M⁻¹ s⁻¹ in the series “purified protein [7]”; 667 M⁻¹ s⁻¹ in the series “purified protein [8]”; 2750 M⁻¹ s⁻¹ in the series “purified protein [9]”; 3550 M⁻¹ s⁻¹ in “purified protein [10]”; 850 M⁻¹ s⁻¹ in “purified protein [11]”.

B4: AgMCO2B (Anopheles gambiae) (protein)
chain: VRVQQHTSRRFKDESFGHDQTPAGSWWSSHLTEPPSNFYQATHGLLQTHPSVPSLKPVAGAPAAPGPSALPLSSRKSPTVSSAAALNSGFPSIANPNPRSPFRHLDFSTSATAELRRNPSLSAPDECARACREGEPPRICYYHFTVEYYTVLGAACQVCTPNATNTVWSHCQCVLADGVERGILTVNRMIPGPSIQVCENDRVVIDVENHMEGMELTIHWHGIWQRGTQYYDGVPFVTQCPIQQGNTFRYQWTGNAGTHFWHAHTGLQKLDGLYGSIVVRQPPSRDPNSHLYDFDLTTHIMLVSDWLHEDAAERYPGRLAVNTGQDPESLLINGKGQFRDPNTGFMTNTPLEIFTITPGRRYRFRMINAFASVCPAQVTIEGHALTVIATDGEPVHPVQVNTIISFSGERYDFVITADQPVGAYWIQLRGLGECGIKRAQQLAILRYARGPYQPASPPPTYDVGLPQGVVMNPLDAVCNVPRPDAVCVSNLRNAKKADKAVLSERPDVKIFLPFRFYFYRVEELFTPNTYNKFLVAPGGDHLISLIDEISYVSPPSPMLSQINDIPPEQFCNGDNRPPDCGPNCMCTHKVDIPLNAIVEVVLVDEVQQENLSHPFHLHGHAFHVIGMGRSPDSTVKKINLRHTLDLDRRGLLNRQFNLPPLKDTIAVPNNGYVVLRFRADNPGYWLFHCHFQFHIVIGMNLVVHIGTHADLPPVPPNFPRCGNHIPPIKYN
As for B4, the Km in “purified protein [3]” (pH 5.0, 0.1 M sodium acetate) amounted to 700 µM; in the series “purified protein [12]”, 4000 µM; in “purified protein [4]”, 2000 µM; in “purified protein [5]”, 800 µM; in “purified protein [6]” (pH 5.5, 0.1 M sodium acetate), 300 µM. In addition, the kcat was 2.12 s⁻¹ in the series “purified protein [3]” (pH 5.0, 0.1 M sodium acetate); 2.98 s⁻¹ in “purified protein [12]”; 6.35 s⁻¹ in “purified protein [4]”; 4.2 s⁻¹ in “purified protein [5]”; 1.05 s⁻¹ in “purified protein [6]” (pH 5.5, 0.1 M sodium acetate). The kcat/Km in “purified protein [3]” (pH 5.0, 0.1 M sodium acetate) was determined as 3020 M⁻¹ s⁻¹; in “purified protein [12]”, 750 M⁻¹ s⁻¹; in the series “purified protein [4]” it was 3170 M⁻¹ s⁻¹; in the series “purified protein [5]” it was 5250 M⁻¹ s⁻¹; in “purified protein [6]” (pH 5.5, 0.1 M sodium acetate), 3500 M⁻¹ s⁻¹.

The term Km denotes the concentration of substrate that gives half-maximal velocity. In general, kcat refers to the maximal rate divided by the concentration of active sites. Usually kcat/Km stands for the turnover number divided by the Michaelis constant.
